This is an account of results in WO2010029497A1 (dated 2010).

Broadly, the Kd is the concentration at which binding is half-saturated. A word on the koff: it is a measure of how fast the partners let go of each other. What is called kon is the second-order rate constant of association. A low value points to slower complex formation.

Where a chain is given by its changes, count along the chain named. In names and notes the source's numbering stands.

For test [1], the target named is T1, human NGF (human, UniProt P01138 122-241). Kind of test: cell-based or functional assay.
T1 sequence (P01138 122-241 limits assumed): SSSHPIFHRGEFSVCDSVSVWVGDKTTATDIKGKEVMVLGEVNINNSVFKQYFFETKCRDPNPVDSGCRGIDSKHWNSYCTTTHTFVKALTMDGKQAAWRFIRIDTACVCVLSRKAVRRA
The target of test [2] is T1, human NGF. Nature of the test: SPR (BIAcore 3000), human NGF immobilised on CM5 chip, Fab injected. (In SPR one partner is held on a chip, and binding of the other changes the refractive index at the surface.)
Test [3] concerns the target T1, human NGF. Kind of test: SPR (BIAcore), 100 RU human NGF on CM5 chip, Fab injected 2 min, 1800 s dissociation.
The target in test [4] is NT3. Nature of the test: cell-based or functional assay.
Chain of NT3 (P20783 139-257): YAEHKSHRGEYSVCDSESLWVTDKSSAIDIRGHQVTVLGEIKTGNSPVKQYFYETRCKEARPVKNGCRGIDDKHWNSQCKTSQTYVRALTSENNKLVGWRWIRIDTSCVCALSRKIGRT
Test [5] addresses T1, human NGF. Nature of the test: SPR (BIAcore 3000), human NGF immobilised on CM5 chip.
Test [6] deals with rat NGF (rat, UniProt P25427 122-241). Kind of test: cell-based or functional assay.
Chain of rat NGF (P25427 122-241 limits assumed): as the sequence (P01138 122-241 limits assumed) above, with S3T, I6V, R9M, M37T, D60A, D65E, M92T, G94D, V117A, A120G counted along it
The target of test [7] is T1, human NGF. Kind of test: summary sentence of the binding properties (BIAcore); its table is not reproduced in this copy.
For test [8], the target named is T1, human NGF. Kind of test: SPR (BIAcore) screening assay, human NGF on chip, Fab from small culture lysates.
In test [9] the target is T1, human NGF. Kind of test: SPR (BIAcore), human NGF immobilised on CM5 chip.

In test [1], “Fab fragment of mouse anti-NGF monoclonal antibody 911” gave a concentration that totally blocked NGF-elicited survival of trigeminal neurons of 20 nM. The same molecule came in with a Kd in test [2] of 10 nM. Besides, in [3], the Kd amounted to 3.7 nM, the koff is 8.4e-05 s⁻¹ and the kon was determined as 22000 M⁻¹ s⁻¹.
Take antibody E3 (full antibody): the inhibition of survival of trigeminal neurons promoted by NT3 in test [4] was over 200 nM.

B1: 8L2-4D5 (CDR-grafted antibody, the template) (Fab, V domains shown)
VH: QVQLQESGPGLVKPSETLSLTCTVSGFSLIGYDINWIRQPPGKGLEWIGMIWGDGTTDYNSALKSRVTISVDTSKNQFSLKLSSVTAADTAVYYCARGGYYYGTSYYFDYWGQGTLVTVS
VL: DIQMTQSPSSLSASVGDRVTITCRASQDISNHLNWYQQKPGKAPKLLIYYISRFHSGVPSRFSGSGSGTDFTFTISSLQPEDIATYYCQQSKTLPYTFGQGTKLEIKR
notes: expressed in E. coli with human kappa constant domain (GenBank CAA09181) and CH1 of human IgG2a (P01859)
On to B1, for which the Kd in [5] was about 38 nM.

B2: Fab E3 (Fab, V domains shown)
VH: B1 VH with I34L, M50I, L63V, V71K, Y101W, G103A
VL: B1 VL with D28S, H32N, I51T, S91E, K92H
notes: Fab made in HEK293 cells, purified on Ni-NTA; also called 3E; Fab 3E
As to B2, in [1], the “IC50, inhibition of human NGF-dependent survival of mouse E13.5 trigeminal neurons, 1.5 pM human NGF” value is about 1.2 pM and the “IC50, inhibition of human NGF-dependent survival of mouse E13.5 trigeminal neurons, 15 pM human NGF” value was about 21 pM. Also, in test [6], the “IC50, inhibition of rat NGF-dependent survival of mouse E13.5 trigeminal neurons, 1.5 pM rat NGF” value is about 1.3 pM and the “IC50, inhibition of rat NGF-dependent survival of mouse E13.5 trigeminal neurons, 15 pM rat NGF” value was about 31.6 pM. Besides, in [3], the Kd was about 0.07 nM, the koff is about 4.2e-05 s⁻¹ and the kon was about 600000 M⁻¹ s⁻¹. For the same molecule, the “fold higher binding affinity than parent mouse antibody 911” value in test [7] was about 50 fold.

B3: 8L2-6D5 (CDR-grafted antibody with the framework mutation V71K) (Fab, V domains shown)
VH: B1 VH with V71K
VL: B1 VL
notes: Fab with human CH1 (IgG2a) and kappa constant domains, his tag at the C terminus of the heavy chain; also called clone 8L2-6D5; Fab 8L2-6D5
Consider B3, for which the Kd in test [2] is about 15 nM. The koff in test [8] came out at 0.001 s⁻¹.

B4: Fab 3C (Fab, V domains shown)
VH: B1 VH with I34L, M50I, L63V, V71K, Y101W, G103A
VL: B1 VL with D28S, H32N, I51T, S91E, K92R
notes: Fab from HEK293 cells
Turning to B4, the Kd in [3] was about 0.35 nM.

B5: H19-L129 (Fab, V domains shown)
VH: B1 VH with I34L, M50I, L63V, V71K
VL: B1 VL with D28S, H32N, I51T
notes: carries I34L, M50I, L63V (heavy) and D28S, H32N, I51T (light) with the grafted H3 and L3 CDRs, so it is E3 without Y101W, G103A, S91E, K92H; Fab with human CH1 (IgG2a) and kappa constant domains; also called Fab H19-L129; combined clone H19-L129
B5 had a Kd in test [9] of about 1 nM.
